# Experimental data reported in the nanobody polyreactivity screen of Harvey et al. (2022).
# Test: yeast display, Sf9 membrane polyspecificity reagent, FACS + sequencing; frameworks hold sequencing errors
# Method in brief: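 A nanobody's polyreactivity label depends on the gate it was sorted from. Yeast display cells were stained with 10% biotinylated, detergent-solubilized Sf9 membrane reagent for 1 hour at 4 °C, enriched on streptavidin microbeads and sorted by FACS. The low and high (top ~1%) gates were set on anti-HA fluorescence for expression and streptavidin fluorescence for reagent binding.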
row,Sequence,polyreactivity (PSR sort gate)
1,QVQLVESGGGLVQAGGSLRLSCAASGSTFQFYAMGWYRQAPGKERELVAVITSGDDTNYADSVKGRFTISRDNAKNTVYLQMNSLKPEDTAVYYCAVEYILVYTRVRSYWFDYWGQGTQVTVSS,low polyreactivity
2,QVQLVESGGGLVQAGGSLRLSCAASGNIFSAYTMGWYRQAPGKERELVAAITGGTSTHYADSVKGRFTISRDNAKNTVYLQMNSLKPEDTAVYYCAADQGRYGIIGWDDYWGQGTQVTVSS,low polyreactivity
3,QVQLVESGGGLVQAGGSLRLSCAASGTNGMGWYRQAPGKERELVAAISGSGGSTYYADSVKGRFTISRDNAKNTVYLQMNSLKPEDTAVYYGAADSIQYTARPYDYWGQGTQVTVSS,low polyreactivity
4,QVQLVESGGGLVQAGGSLRLSCAASGSIFQSYDMGWYRQAPGKERELVAAIRSGDSTYYADSVKGRFTISRDNAKNTVYLQMNSLKPEDTAVYYCNARYGNESQGWEDYWGQGTQVTVSS,low polyreactivity
5,QVQLVESGGGLVQAGGSLRLSCAASGGTFWIYAMGWYRQAPGKERELVAGITTSGATTYYADSVKGRFTISRDNAKNTVYLQMNSLKPEDTAVYYCAAVIRPRYYQVRPRYDYWGQGTQVTVSS,low polyreactivity
6,QVQLVESGGGLVQAGGSLRLSCPASGLIFRSYAMGRYRQAPGKERELVARISIRGGSTYYADSVKGRFTISRDNAKNTVYLQMNSLKPEDTAVYYCAAVGYLGGYRYDYWGQGTQVTVSS,high polyreactivity
7,QVQLVESGGRLVQAGGSLRLSCAASGIIFTNYAMGWYRQAPGKERELVAAISSSSGTTYYADSVKGRFTISRDNAKNTVYLQMNSLKPEDTAVYYCAARPVYSTGYPRGRYGYWGQGTQVTVSS,high polyreactivity
8,QVHLVESGGGLVQAGGSLRLSCAASGRTIVGYDMGWYRQAPGKEMELVAAISSRGGSTYYADSVKGRFTISRDNAKNTVYLQRNSLKPEDTAVYYCAALWYVGYGPVDYWGQGTQVTVSS,high polyreactivity
9,QVQLVESGGGLVQAGGSLRLSCAASGSTSHQYAMGSYRQAPGKERELVAAISSRAGSTYYADSVKGRFTISRDNAKNTVYLQMNSLKPEDTAVYYCAAEADSWKWGYDYWGQGTQVTVSS,low polyreactivity
10,QVQLVESGGGVVQAGGSLRLSSAASGISFAYYAMGWYRQAPGKERELVASITNTGSTYYADSVKGRFTISRDNAKNSVYLEMTSLKPEDTAVYYCNAVLSSNTKWRYPGDDWGQGTQVTVSS,low polyreactivity
11,QVQLVESGGGLVQAGGSLRLSCAASGIIFIYYDMGWYRQAPGKERELVAAISRSGGSTYYADSVKGRFTISRDIAKNTFYLQMNSLKPEDTAVYYCAARRITSTDEYYWGHGTQVTVSS,high polyreactivity
12,QVQLVESGGGLVQAGGSLRLSCAASGSTFEYYAMGWYRQAPGKERELVATITFGGGSTYYADSVKGRFTISRDNAKNTVYLQMNSLKPEDTAVYYCAADSGYLGIYGDEYSWGQGTQVTVSS,low polyreactivity
13,QVQLVESGGGLVQAGGSLRLSCAASGITFDLYAMGRYRQAPGKERELVAASTYYADSVKGRFTISRDNAKNTVYLQMNSLKPEDTAVYFCNTREPVTYDYWGQGTQVTVSS,high polyreactivity
14,QVQLVESGGGLVQAGGSLRLSCAASGLIFSSNAMGWYRQAPGKERELVATISWSGGSTYYADSVKGRFTISRDNAKNTVYLQMNSLKPEDTAVYYCAAVTHPAWAVEYDYWGQGTQVTVSS,high polyreactivity
15,QVHLVESGGGLVQAGGSLRLSCADCGFTLYGNAMGWYRQAPGKVRELVAAITKSGGRTYYADSVKGRFTISRDNAKNTVYLQMNSLKPEDTAVYYCAVRAKSRYDYWGQGTQVTVSS,high polyreactivity
16,QVQLVESGGGLVQAGGSLRLSCAASGIIFYVYAMGWYRQAPGKERELVAAISSTSSTYADSVKGRFTISRDNAKNTVYLQMNSLKPEDTAVFYCNTDYSDGYPAFDYWGQGTQVTVSS,low polyreactivity
17,QVQLLESGGGLVQAGGSLRLSCAASGSIINRYAMGLYRQAPGKERELVAAISWRGGSTYYADSVKGRFTISRDNAKNTVYLQMNSLKPEDTAVYYCNKVSYVKSGYWGQGTQVTVSS,high polyreactivity
18,QVQLVESGGGLFQAGGRLRLSCAASGITFVYYAMGWSRQAPGKERELVAAISWGGGSTYYADSVKGRFTISSDNAKNTVYLQMNSLKPEDTAVYYCAADAYVNATPEVSAMGYWGQGTQVTVSS,low polyreactivity
19,QVQLVESGGGLVQAGGSLRLSCAASGFIFKVYAMGWYRQAPGKERELVAAISSRGGRTNYADSVKGRFTISRDNAKNTVYLQMNSLKPEDTAVYYCATGAAGAYDYWGQGTQVTVSS,high polyreactivity
20,QVQLEESGGGLVQAGGSLRLSCAASGSIFRKYAMVSYRQAPGKERELVAAIRSSGGSTYYADSVKGRFTISRDNANNTVYLQMNSLKPEDTAVYYCAARYYRPSRYDYWGQGTQVTVSS,high polyreactivity
21,QVQLVESGRGLVQAGGSLRLSCAASGITFYTYAMGWYRQEPGKARELVATISSGGSTDYADSVKGRFTISRDNAKITVYLQMNSLKPEDTAVYYCADQYSYRIYYLYDYWGQGTQVTVSS,low polyreactivity
22,QVQLVESGGGLVQAGGSLRLSCAASGFTFRYYAMGWYRQAPGKERELVAAISRSDSRTYADSVKGRFTISRDNAKNTVYLQMTSLNPEDTAVYYCAARIRPLYANVRYGYWGQGTQVTVSS,high polyreactivity

row,Sequence,polyreactivity (PSR sort gate)
1,QVQLVESGGGLVQAGGSLRLSCAASGIIFIGNAMGWYRQAPGKERELVAAITYTGGSTYYADSVKGRFTISRDNAKNTVYLQMNSLKPEDTAVYYCAVDRTHLEDDYWGQGTQVTVSS,low polyreactivity
2,QVQLVESGGGLVQAGGSLRLSCAASGSTFVWYAKGWYIQAPGKERELVAAINFGGTTYYADSVKGRFTISRDNAKNTVYLQMNSLKPEETAVYYCATEYDYGSWFPDGWGIFDYWGQGTQVTVSS,low polyreactivity
3,QVQLVESGGCLVQAGGSLRLSCAASVRIFQIYAMGWYRQAPGKERELVATISSGTRTYYADSVKGRFTMSRDNAKNTVYLQMNSLKPEDTAVYYCAKTYATRHAYWAGTRYEDDYWGQGTQVTVSS,high polyreactivity
4,QVQLVESGGGLVQAGGSLRLSCAASGLTFKLYVMGWYRQAPGKERELVAAISGGGSTYYADSVKGRFTISRDNAKNTVYLQMNSLKPEDTAVYYCAAVRYFEYEYWGQGTQVTVSS,low polyreactivity
5,QVQLVESGGVLVQAGGSLRLSCAASGFTFLVYAMGWYRQAPGKERELLAAITSGSSTTYADSVKGRFTISRDNAKNTVYLQMNSLKPEDTAVYYCAARPRLDVLVKRFYYWGQGTQVTVSS,high polyreactivity
6,QVQLVESGGGLVQAGGSLRLSCAASGSTFSTYAMGSYRQAPGKERELVATISKRGGSTYYADSVKGRFTISRDNAKNTVYLQMNSLKPEDTAVYYCATPRYRYYTIYDYGYWGQGTQVTVSS,high polyreactivity
7,QVQLVESGGGLVQAGGSLRLSCAASGLIFPRNAMGWYRQAPGKERELVAVISRSGTSTYYADSVKGRFTISRDNAKNTVYLQMNSLKPEDTAVYYCAAAPSQVYRARFYYWGQGTQVTVSS,high polyreactivity
8,QVQLVESGGGLVQAGGSLRLSCAASGSIFVPNAMGWSRQALGKERELVAAITYSGVDTYYADSVKGRFTISRDNAKNTVYLQMNSLKPEDTAVYYCAADNGRVGYDYWGQGTQVTVSS,low polyreactivity
9,QVQLVETGGGLVQAGGSLRLSCAASGRTYSTYAMGWYRQAPGKERDLVADISWRGAPTYYADSVKGRFTISRDNAKNTVYLQIISQKPEYTAVYYFAAAPYGYLRYEYWGLGTQVTVSS,high polyreactivity
10,QVQLVESAGGLVQAGVSLRLSCAASGRTFVGNAMGGYRQAPGKERELVADITWSGDITYYADSVKGRFTIARDTAKNTVYLQMISLKPEDTAVYYCAADYHRRLTDYDYWGQGTQVTVSS,low polyreactivity
11,QVQLVESGGGIVQAGGSLRLSCAASGITIYKYAMGWYRQAPGKERELLAAITRGGSTYYADSVKGRFTISRDNAKNTVYLQMNSLNPEDTAVYYCNKVYHWQTPGFGYGYWGQGTQVTVSS,high polyreactivity
12,QVQLVESGGGLVQAGGSLRLSCAASGRIFERYAMGWYRQAPGKERELVAGISISGGGTYYADSVKGRFTISRDIAKNTVYFQMNSLKPEDTAVYYCAATFPREEYGYWGQGTQVTVSS,low polyreactivity
13,QVQLVDSGGGLVQAGGSLRLSCAASGITFYYYAMGWYRQAPGKERELVAAISSRGGSTYYADSVKGRFRISRDNAKNTVYLQMNSLNPEDTAVYYCAAGRVGAWTFDYWGEGTQVTVSS,high polyreactivity
14,QVQLVESGGGLVQAGGRLRLSCAASGITFRWYAMGWYRQAPGKERELVAAITTSGDSTYYADSVKGRFTISRDNAKNTVYLQMNSLKPEDTAVNYCAAKYQSLRTYGYGFDYWGQGTQVTVSS,high polyreactivity
15,QVQLVESGGGLVQAGGSLRLSCAASGLIFRYNAMGWSRQAPGKERELVAAISRSGGTTYYADSVKGRFTISRDNAKNTVYLQMNSLKPEDTAVYYCATRISQSYYNYGYWGQGTQVTVSS,high polyreactivity
16,QVQLVESGGGLVQAGGSLRLSCAASGSTFDVYAMGWYRQAPGKERELVAAITWDGDRTYYADSVKGRFTISRDNAKNTVYLQMNSLKPEDTAVYYCNVDTYVEYPHDYWGQGTQVTVSS,low polyreactivity
17,QVQLVESGGGLVQAGGSLRLSCAASGFTFVQYAMGWYRPAPGKERELVATISKSGGITYYADSVKGRFTISRDTAKNTVYLHMNSVKPEDTAVYYCAAAWYYSSRGFHATWGHDYWGQGTQVTVSS,low polyreactivity
18,QVQLVESGGGLVQAGGSLRLSCAASGSTYGYTMGWYRQAPGKERELVADITSGGTTNYADSVKGRFTISRDNAKNTVYLQMNSLKPEDTAVYYCATRGAEWGWLGSIFNPFDYWGQGTQVTVSS,low polyreactivity
19,QVQLVESGGGLVQAGGRLRLSCAASGFTFWRNAMGWYRQAPGKERELVAAISRRGGNTYYADSVKGRFTISRDNAKNCVYLQMNSLKPEDTAVYYCAADYSYYYGYDYWGQGTQVTVSS,high polyreactivity
20,QVQLVESGGGLVQAGGSLRLSCAASGRTFGPYAMGWYRQAPGKEREFVAAISYSGGSTYYADSVKGRFTISRDNAKNTVYLQMNSLKPEDTAVYYCAVDIDSNSGTRDYWGQGTQVTVSS,low polyreactivity
21,QVQLVESGGGLVQAGGSLRLSCAASGFTFKYNAMGWYRQAPGKERELVAAISSSGSTNYADSVKGRFTISRDNAKNTVYLQMNSLKPEDTAVYYCAARWRSVLAAGTRPVSFDYWGQGTQVTVSS,low polyreactivity
